Five molecules from patent US20150093764A1 (BECTON DICKINSON, published 2015) can be followed below.

Test [1] has as its target T1, human CD88 (complement component 5a receptor 1) (human, UniProt P21730 1-350).
T1 construct: Native antigen on granulocytes of lysed human whole blood / PBMC preparations, read by flow cytometry; also called C5AR1; native CD88 antigen expressed on granulocytes
T1 chain: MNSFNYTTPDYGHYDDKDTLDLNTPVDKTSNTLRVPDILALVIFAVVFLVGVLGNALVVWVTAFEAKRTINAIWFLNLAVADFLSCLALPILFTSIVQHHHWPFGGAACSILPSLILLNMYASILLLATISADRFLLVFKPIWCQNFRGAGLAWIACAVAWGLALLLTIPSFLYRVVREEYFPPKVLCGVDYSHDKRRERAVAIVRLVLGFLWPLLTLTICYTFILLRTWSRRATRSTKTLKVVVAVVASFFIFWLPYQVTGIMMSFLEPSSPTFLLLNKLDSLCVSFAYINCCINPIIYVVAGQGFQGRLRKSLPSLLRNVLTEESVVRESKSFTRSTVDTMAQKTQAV
Kind of test: flow cytometry on granulocytes, PE goat anti-rabbit secondary. As to the method: (§1) For cell surface staining with the parental rabbit anti-human CD88 mAb, PBMCs in PBS containing 2% BSA were mixed with parental rabbit anti-human CD88 mAbs at concentrations of 1 μg, 0.5 μg, 0.25 μg, 0.125 μg and 0.0625 μg as shown in FIG. 3 (A-E) and incubated for 1 hr at 4° C. The cells were washed with PBS containing 2% BSA and incubated at 4° C. for 30 minutes with BD Pharmingen PE Goat Anti-rabbit IgG (Cat No 558146). The cells were washed with PBS containing 2% BSA, and analyzed with a BD FACS Canto II Flow cytometer. Non-specific binding of the secondary anti-rabbit PE-conjugated antibody on the cells alone (primary antibody absent; FIG. 3F) and background autofluorescence by unstained cells (secondary antibody absent; FIG. 3G) served as negative controls for the assay. The % positive signal was detected.

Test [2] concerns the target T1, human CD88 (complement component 5a …). Nature of the test: flow cytometry on granulocytes, PE goat anti-rabbit IgG secondary. As to the method:
as §1
The binding of the variant rabbit anti-human CD88 mAbs was assayed as for the parental mAb, and the results for four variants are shown in FIGS. 4-7. […] Panels F and G show fluorescence of the negative controls as described for the parental mAb. […] Panels F and G show fluorescence of the negative controls as described for the parental mAb. […] Panels F and G show fluorescence of the negative controls as described for the parental mAb. FIG. 7 (A-E) show the binding at concentrations of 1 ug, 0.5 ug, 0.25 ug, 0.125 ug and 0.0625 ug of a fourth variant mAb having a substitution R116A in the heavy chain and a substitution Y51F in the light chain CDRs. Panels F and G show fluorescence of the negative controls as described for the parental mAb.

B1: parental rabbit anti-human CD88 mAb (hybridoma cell line CD88 clone C85-4124) (antibody, V domains shown)
VH: QSVKESEGGLFKPADTLTLTCTVSGFSVNNKGVMWVRQAPGNGLEWIGSIGISGRVTYATWAKSRSTITRDTNLNTVTLKVTSLTVADTATYFCRIGSNIWGPGTLVTVSS
VL: ELVLTQTPSSVSAAVGGTVTINCQSSQSVYNNNLLAWYQQKPGQPPKLLIYQASTLDSGVPSRFKGSGTGTHFTLTISDLECDDAATYYCQGGYNGNGIAAFGGGTEVVVDG
notes: Rabbit monoclonal antibody
For B1, the binding result in test [1] was “binds”.

B2: Variant 3 rabbit anti-human CD88 mAb, R116A in heavy chain and Y51A in light chain (antibody, V domains shown)
VH: QSVKESEGGLFKPADTLTLTCTVSGFSVNNKGVMWVRQAPGNGLEWIGSIGISGRVTYATWAKSRSTITRDTNLNTVTLKVTSLTVADTATYFCAIGSNIWGPGTLVTVSS
VL: ELVLTQTPSSVSAAVGGTVTINCQSSQSVANNNLLAWYQQKPGQPPKLLIYQASTLDSGVPSRFKGSGTGTHFTLTISDLECDDAATYYCQGGYNGNGIAAFGGGTEVVVDG
notes: Recombinant double mutant, made in 293F cells; also called third variant
As for B2, in test [2], the binding result is recorded as “no binding”.

B3: Variant 1 rabbit anti-human CD88 mAb, R116A in heavy chain CDR-H3 (antibody, V domains shown)
VH: QSVKESEGGLFKPADTLTLTCTVSGFSVNNKGVMWVRQAPGNGLEWIGSIGISGRVTYATWAKSRSTITRDTNLNTVTLKVTSLTVADTATYFCAIGSNIWGPGTLVTVSS
VL: ELVLTQTPSSVSAAVGGTVTINCQSSQSVYNNNLLAWYQQKPGQPPKLLIYQASTLDSGVPSRFKGSGTGTHFTLTISDLECDDAATYYCQGGYNGNGIAAFGGGTEVVVDG
notes: No signal peptide limits are stated; also called first variant
Take B3: the binding result in test [2] is given as “no binding”.

B4: Variant 2 rabbit anti-human CD88 mAb, Y51A in light chain CDR-L1 (antibody, V domains shown)
VH: QSVKESEGGLFKPADTLTLTCTVSGFSVNNKGVMWVRQAPGNGLEWIGSIGISGRVTYATWAKSRSTITRDTNLNTVTLKVTSLTVADTATYFCRIGSNIWGPGTLVTVSS
VL: ELVLTQTPSSVSAAVGGTVTINCQSSQSVANNNLLAWYQQKPGQPPKLLIYQASTLDSGVPSRFKGSGTGTHFTLTISDLECDDAATYYCQGGYNGNGIAAFGGGTEVVVDG
notes: Recombinant, made in 293F cells; also called second variant
In the case of B4, the binding result in test [2] is “no binding”.

B5: Variant 4 rabbit anti-human CD88 mAb, R116A in heavy chain and Y51F in light chain (antibody, V domains shown)
VH: QSVKESEGGLFKPADTLTLTCTVSGFSVNNKGVMWVRQAPGNGLEWIGSIGISGRVTYATWAKSRSTITRDTNLNTVTLKVTSLTVADTATYFCAIGSNIWGPGTLVTVSS
VL: ELVLTQTPSSVSAAVGGTVTINCQSSQSVFNNNLLAWYQQKPGQPPKLLIYQASTLDSGVPSRFKGSGTGTHFTLTISDLECDDAATYYCQGGYNGNGIAAFGGGTEVVVDG
notes: Recombinant double mutant, made in 293F cells; also called fourth variant
Turning to B5, the binding result in test [2] was “no binding”.
